Measurements reported in PMC2592534.

What was measured:
Assay in all cases: SPR
rat ficolin-A M57E (rat) = target: rat ficolin-A M57E (rat)
rat ficolin-A O54A (rat) = rat ficolin-A O54A (rat) (UniProt Q9WTS8)
rat ficolin-A M57S (rat) = target: rat ficolin-A M57S (rat)
rat ficolin-A P59A (rat) = rat ficolin-A P59A (rat) (UniProt Q9WTS8)
rat ficolin-A P59A (rat), sequence (Q9WTS8 18-335 P76A): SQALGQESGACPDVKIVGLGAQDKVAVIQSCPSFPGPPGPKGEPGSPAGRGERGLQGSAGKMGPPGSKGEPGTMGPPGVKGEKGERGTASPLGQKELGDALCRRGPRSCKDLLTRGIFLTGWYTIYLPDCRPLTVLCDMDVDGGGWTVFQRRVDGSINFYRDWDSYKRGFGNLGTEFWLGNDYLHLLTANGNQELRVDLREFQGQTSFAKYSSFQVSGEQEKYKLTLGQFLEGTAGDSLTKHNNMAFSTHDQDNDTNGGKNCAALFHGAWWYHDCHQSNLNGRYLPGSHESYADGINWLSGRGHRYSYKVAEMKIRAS

rat MASP-2A (catalytically inactive MBL-associated serine protease-2, Ser613 to Ala), sequence (Q9JJS8 20-685 S632A): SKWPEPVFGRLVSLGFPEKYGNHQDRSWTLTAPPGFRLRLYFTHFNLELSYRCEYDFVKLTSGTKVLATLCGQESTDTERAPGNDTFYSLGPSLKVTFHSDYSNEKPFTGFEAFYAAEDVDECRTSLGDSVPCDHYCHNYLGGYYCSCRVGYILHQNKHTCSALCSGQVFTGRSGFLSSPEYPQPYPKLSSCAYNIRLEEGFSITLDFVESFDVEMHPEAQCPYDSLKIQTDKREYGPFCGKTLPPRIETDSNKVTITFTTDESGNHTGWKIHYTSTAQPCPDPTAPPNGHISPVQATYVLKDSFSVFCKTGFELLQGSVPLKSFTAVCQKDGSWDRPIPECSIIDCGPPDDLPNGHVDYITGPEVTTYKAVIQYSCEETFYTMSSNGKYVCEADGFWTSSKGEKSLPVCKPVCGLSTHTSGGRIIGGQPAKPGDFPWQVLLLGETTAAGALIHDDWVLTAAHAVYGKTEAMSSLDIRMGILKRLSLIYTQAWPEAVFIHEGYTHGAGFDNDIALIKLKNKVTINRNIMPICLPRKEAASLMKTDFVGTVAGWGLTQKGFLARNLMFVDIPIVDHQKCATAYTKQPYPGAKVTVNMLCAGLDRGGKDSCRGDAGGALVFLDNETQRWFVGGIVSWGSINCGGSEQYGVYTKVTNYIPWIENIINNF
rat ficolin-A O54A (rat), sequence (Q9WTS8 18-335 P54A): as the sequence (Q9WTS8 18-335 P76A) above, with P37A, A59P counted along it

rat MASP-2A (catalytically inactive MBL-associated serine protease-2, Ser613 to Ala) (from UniProt Q9JJS8 20-685) (enzyme)
KD1 (apparent, two-complex, parallel reaction model) (rat ficolin-A M57E (rat)): 49 nM
KD2 (apparent, two-complex, parallel reaction model) (rat ficolin-A M57E (rat)): 3.23 µM
koff of complex 2 (two-complex, parallel reaction model) (rat ficolin-A M57E (rat)): 0.0094 s⁻¹
KD2 (apparent, two-complex, parallel reaction model) (rat ficolin-A O54A (rat)): 153 nM
KD1 (apparent, two-complex, parallel reaction model) (rat ficolin-A M57S (rat)): 11.6 nM
KD2 (apparent, two-complex, parallel reaction model) (rat ficolin-A M57S (rat)): 133 nM
koff of complex 2 (two-complex, parallel reaction model) (rat ficolin-A M57S (rat)): 0.0048 s⁻¹
kon of complex 1 (two-complex, parallel reaction model) (rat ficolin-A M57S (rat)): 410000 M⁻¹ s⁻¹
kon of complex 2 (two-complex, parallel reaction model) (rat ficolin-A M57S (rat)): 37000 M⁻¹ s⁻¹
KD1 (apparent, two-complex, parallel reaction model) (rat ficolin-A P59A (rat)): 6.8 nM
KD2 (apparent, two-complex, parallel reaction model) (rat ficolin-A P59A (rat)): 253 nM
kon of complex 1 (two-complex, parallel reaction model) (rat ficolin-A P59A (rat)): 1.13e+06 M⁻¹ s⁻¹
kon of complex 2 (two-complex, parallel reaction model) (rat ficolin-A P59A (rat)): 42000 M⁻¹ s⁻¹
